Laboratory results published in IntAct's records for PubMed 21139566.

B1: Structural maintenance of chromosomes protein 3 (Saccharomyces cerevisiae), P47037 (parent)
chain: MYIKRVIIKGFKTYRNETIIDNFSPHQNVIIGSNGSGKSNFFAAIRFVLSDDYSNLKREERQGLIHQGSGGSVMSASVEIVFHDPDHSMILPSGVLSRGDDEVTIRRTVGLKKDDYQLNDRNVTKGDIVRMLETAGFSMNNPYNIVPQGKIVALTNAKDKERLQLLEDVVGAKSFEVKLKASLKKMEETEQKKIQINKEMGELNSKLSEMEQERKELEKYNELERNRKIYQFTLYDRELNEVINQMERLDGDYNNTVYSSEQYIQELDKREDMIDQVSKKLSSIEASLKIKNATDLQQAKLRESEISQKLTNVNVKIKDVQQQIESNEEQRNLDSATLKEIKSIIEQRKQKLSKILPRYQELTKEEAMYKLQLASLQQKQRDLILKKGEYARFKSKDERDTWIHSEIEELKSSIQNLNELESQLQMDRTSLRKQYSAIDEEIEELIDSINGPDTKGQLEDFDSELIHLKQKLSESLDTRKELWRKEQKLQTVLETLLSDVNQNQRNVNETMSRSLANGIINVKEITEKLKISPESVFGTLGELIKVNDKYKTCAEVIGGNSLFHIVVDTEETATLIMNELYRMKGGRVTFIPLNRLSLDSDVKFPSNTTTQIQFTPLIKKIKYEPRFEKAVKHVFGKTIVVKDLGQGLKLAKKHKLNAITLDGDRADKRGVLTGGYLDQHKRTRLESLKNLNESRSQHKKILEELDFVRNELNDIDTKIDQVNGNIRKVSNDRESVLTNIEVYRTSLNTKKNEKLILEESLNAIILKLEKLNTNRTFAQEKLNTFENDLLQEFDSELSKEEKERLESLTKEISAAHNKLNITSDALEGITTTIDSLNAELESKLIPQENDLESKMSEVGDAFIFGLQDELKELQLEKESVEKQHENAVLELGTVQREIESLIAEETNNKKLLEKANNQQRLLLKKLDNFQKSVEKTMIKKTTLVTRREELQQRIREIGLLPEDALVNDFSDITSDQLLQRLNDMNTEISGLKNVNKRAFENFKKFNERRKDLAERASELDESKDSIQDLIVKLKQQKVNAVDSTFQKVSENFEAVFERLVPRGTAKLIIHRKNDNANDHDESIDVDMDAESNESQNGKDSEIMYTGVSISVSFNSKQNEQLHVEQLSGGQKTVCAIALILAIQMVDPASFYLFDEIDAALDKQYRTAVATLLKELSKNAQFICTTFRTDMLQVADKFFRVKYENKISTVIEVNREEAIGFIRGSNKFAEV
partner: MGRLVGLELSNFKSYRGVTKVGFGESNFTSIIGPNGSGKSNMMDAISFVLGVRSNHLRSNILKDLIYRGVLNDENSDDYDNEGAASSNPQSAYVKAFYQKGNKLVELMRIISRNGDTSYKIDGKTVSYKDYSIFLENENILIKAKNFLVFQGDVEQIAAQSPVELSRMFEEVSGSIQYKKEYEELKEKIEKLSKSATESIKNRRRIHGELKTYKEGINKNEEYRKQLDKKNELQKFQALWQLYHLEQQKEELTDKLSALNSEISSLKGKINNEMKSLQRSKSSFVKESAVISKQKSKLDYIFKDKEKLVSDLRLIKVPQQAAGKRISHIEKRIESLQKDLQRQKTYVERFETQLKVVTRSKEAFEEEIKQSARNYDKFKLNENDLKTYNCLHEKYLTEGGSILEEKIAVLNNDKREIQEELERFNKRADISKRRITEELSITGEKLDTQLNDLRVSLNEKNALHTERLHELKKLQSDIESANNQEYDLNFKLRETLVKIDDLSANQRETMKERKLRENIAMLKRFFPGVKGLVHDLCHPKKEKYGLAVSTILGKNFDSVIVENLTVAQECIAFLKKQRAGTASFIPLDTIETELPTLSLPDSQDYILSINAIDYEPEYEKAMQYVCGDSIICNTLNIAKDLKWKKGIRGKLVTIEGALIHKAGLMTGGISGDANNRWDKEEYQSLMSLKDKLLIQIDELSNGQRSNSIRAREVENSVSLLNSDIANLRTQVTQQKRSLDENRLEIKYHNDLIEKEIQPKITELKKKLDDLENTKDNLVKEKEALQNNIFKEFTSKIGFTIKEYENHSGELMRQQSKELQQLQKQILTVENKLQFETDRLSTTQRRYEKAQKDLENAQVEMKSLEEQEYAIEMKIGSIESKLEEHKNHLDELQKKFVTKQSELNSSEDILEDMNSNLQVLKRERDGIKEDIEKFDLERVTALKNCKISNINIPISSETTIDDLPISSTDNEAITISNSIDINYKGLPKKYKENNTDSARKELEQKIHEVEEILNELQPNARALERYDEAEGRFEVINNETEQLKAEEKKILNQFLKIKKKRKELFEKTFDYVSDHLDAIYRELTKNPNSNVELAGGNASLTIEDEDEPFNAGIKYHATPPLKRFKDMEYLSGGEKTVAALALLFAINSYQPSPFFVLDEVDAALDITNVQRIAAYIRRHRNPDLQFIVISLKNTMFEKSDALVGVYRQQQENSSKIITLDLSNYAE
B2: Structural maintenance of chromosomes protein 1 (Saccharomyces cerevisiae), P32908 (parent)
chain: B1 partner
partner: B1 chain

Variants of: B1
Settings: with smc1_yeast SMC1, P32908

Variant	effect of a mutation on the interaction
K668A	decreasing interaction
R665A	decreasing interaction
R669A	decreasing interaction

Variants of: B2
Settings: with smc3_yeast SMC3, P47037

Variant	effect of a mutation on the interaction
K661D	decreasing interaction
K554D	decreasing interaction

Variants of: B2
Settings: with smc3_yeast SMC3, P47037
Remark: another data set of the same source

Variant	effect of a mutation on the interaction
M665R	disrupting interaction
